Experimental data from paper PMC3794860, “An RNA-Binding Complex Involved in Ribosome Biogenesis Contains a Protein with Homology to tRNA CCA-Adding Enzyme” (PLoS Biology, 2013).

Target: T1, Utp22 (S. cerevisiae, UniProt P53254 1-1237)
T1 construct: Utp22, yeast, 1,237 residues, amplified from yeast genomic DNA, cloned with no tag; Residues 1-80 and several internal loops are not visible in the crystal; A selenomethionine-labelled form was used for phasing; source: High Five insect cells, recombinant baculovirus, coexpressed with Rrp7, copurified (HisTrap, heparin, Superdex 200)
T1 sequence (looked up): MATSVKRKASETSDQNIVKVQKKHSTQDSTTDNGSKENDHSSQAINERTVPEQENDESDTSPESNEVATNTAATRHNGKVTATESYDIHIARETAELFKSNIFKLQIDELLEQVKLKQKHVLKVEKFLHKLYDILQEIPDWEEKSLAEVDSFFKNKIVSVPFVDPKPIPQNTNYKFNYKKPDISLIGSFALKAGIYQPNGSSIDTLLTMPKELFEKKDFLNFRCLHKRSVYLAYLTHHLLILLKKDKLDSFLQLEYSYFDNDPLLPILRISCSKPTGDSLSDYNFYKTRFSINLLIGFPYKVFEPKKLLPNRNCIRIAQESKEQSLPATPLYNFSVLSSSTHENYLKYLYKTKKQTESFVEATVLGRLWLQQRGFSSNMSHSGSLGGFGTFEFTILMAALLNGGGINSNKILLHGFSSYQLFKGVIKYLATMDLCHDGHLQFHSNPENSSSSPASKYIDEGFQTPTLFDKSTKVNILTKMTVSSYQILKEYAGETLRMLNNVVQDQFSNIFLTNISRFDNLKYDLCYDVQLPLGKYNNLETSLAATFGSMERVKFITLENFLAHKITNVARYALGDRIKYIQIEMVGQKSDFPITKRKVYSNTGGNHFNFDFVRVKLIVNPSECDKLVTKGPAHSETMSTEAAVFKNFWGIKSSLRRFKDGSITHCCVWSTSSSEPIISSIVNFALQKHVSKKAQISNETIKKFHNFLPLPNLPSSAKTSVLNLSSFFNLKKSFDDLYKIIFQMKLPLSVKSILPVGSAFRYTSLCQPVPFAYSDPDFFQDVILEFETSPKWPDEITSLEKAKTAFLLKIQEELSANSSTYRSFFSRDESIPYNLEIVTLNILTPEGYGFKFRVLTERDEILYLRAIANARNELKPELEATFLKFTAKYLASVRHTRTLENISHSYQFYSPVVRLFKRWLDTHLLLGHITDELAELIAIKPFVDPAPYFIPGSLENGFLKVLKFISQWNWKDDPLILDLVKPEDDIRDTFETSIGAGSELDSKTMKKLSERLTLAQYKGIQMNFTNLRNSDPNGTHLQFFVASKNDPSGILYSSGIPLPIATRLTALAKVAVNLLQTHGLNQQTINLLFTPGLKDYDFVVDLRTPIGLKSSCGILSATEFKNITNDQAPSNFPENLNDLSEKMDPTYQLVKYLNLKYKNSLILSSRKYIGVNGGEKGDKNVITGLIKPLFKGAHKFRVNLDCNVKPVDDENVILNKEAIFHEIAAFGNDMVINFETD
Assay: crystal structure; Utp22 and Rrp7 coexpressed in insect cells, copurified and cocrystallised; hanging drop, 20°C, 100 mM sodium cacodylate pH 6.2–6.5, 30% PEG 400, 200 mM lithium sulfate; refined to 1.97 Å
Conditions: both partners purified

B1: Rrp7 (natural protein, S. cerevisiae, UniProt P25368 1-297, looked up)
chain: MGIEDISAMKNGFIVVPFKLPDHKALPKSQEASLHFMFAKRHQSSNSNESDCLFLVNLPLLSNIEHMKKFVGQLCGKYDTVSHVEELLYNDEFGLHEVDLSALTSDLMSSTDVNEKRYTPRNTALLKFVDAASINNCWNALKKYSNLHAKHPNELFEWTYTTPSFTTFVNFYKPLDIDYLKEDIHTHMAIFEQREAQAQEDVQSSIVDEDGFTLVVGKNTKSLNSIRKKILNKNPLSKHENKAKPISNIDKKAKKDFYRFQVRERKKQEINQLLSKFKEDQERIKVMKAKRKFNPYT
notes: N-terminal His6-tag followed by a PreScission site, cleaved with PreScission protease; source: High Five insect cells, recombinant baculovirus, coexpressed with Utp22, copurified (HisTrap, heparin, Superdex 200); not shown: His6, N-terminal, cleaved
binding result: binds
